Experimental data reported in publication PMC5031806.

Biological target: meMICU1^97-476 (human MICU1 residues 97-476, methylated in vitro by recombinant PRMT1) (human) (UniProt Q9BPX6)
Test: ITC; IML2^UCP2 (500 μM, syringe) titrated into MICU1 (40 μM, cell); VP-ITC, 25 °C; 20 mM Tris pH 7.0, 500 mM NaCl, 50 mM Arg, 2 mM BME; single site-binding model

Chain of UniProt Q9BPX6 (Q9BPX6 97-476): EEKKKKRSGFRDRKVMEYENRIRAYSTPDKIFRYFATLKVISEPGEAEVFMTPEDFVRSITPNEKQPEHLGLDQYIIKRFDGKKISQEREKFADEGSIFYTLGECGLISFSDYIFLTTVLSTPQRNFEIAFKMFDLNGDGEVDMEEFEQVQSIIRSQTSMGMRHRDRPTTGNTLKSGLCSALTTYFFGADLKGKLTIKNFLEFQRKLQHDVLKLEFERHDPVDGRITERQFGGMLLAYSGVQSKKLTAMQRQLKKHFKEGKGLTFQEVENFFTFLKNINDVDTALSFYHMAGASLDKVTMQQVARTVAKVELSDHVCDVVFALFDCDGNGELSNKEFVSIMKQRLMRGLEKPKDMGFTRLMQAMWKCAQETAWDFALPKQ

Kd: 24.6 µM
Substance: IML2^UCP2 (chemically synthetized intermembrane loop 2 of UCP2) (from UniProt P55851 147-171) (peptide)
